This series in a line: yeast display, Sf9 membrane polyspecificity reagent, FACS + sequencing; frameworks hold sequencing errors. The method, boiled down:
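Galactose induction of a Saccharomyces cerevisiae BJ5465 synthetic nanobody display library ran 36–48 hours. The cells were then stained for 1 hour at 4 °C with 10% biotinylated, detergent-solubilized Sf9 membrane reagent, pulled down on streptavidin microbeads and FACS-sorted into low and high (top ~1%) gates on expression and reagent-binding fluorescence. Labels for polyreactivity follow the gate of origin.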
Turning to “QVQLVESGGGLVQAGGSLRLSCAASGLTFKYYAMGWSRQAPGKESELVAAITSTGGRTYYADSVKGRFTISRDNAKNTVYLQMNSLKPEDTAVYYCAAYYVGSSKYDSWGQGTQVTVSS”, the “polyreactivity (PSR sort gate)” value is listed as “low polyreactivity”.
As for “QVQLVESGGGLVQAGGSLRLSCAASGLTFLYYAMGWYRQAPGKERELVAAISSRGGSTYYADSVKGRFKISRDNAKNTVYLQMNSLKPEDTAVYYCNAVRGDEYWGQGTQVTVSS”, the “polyreactivity (PSR sort gate)” value is on record as “high polyreactivity”.
With “QVQLVESGGGLVQAGGSLRLSCAASGLTFNKNAMGWYRQAPGKEREFVAAISRRGGSTRYADSVKGRFTISRDNAKNTVYLQMHSLKPEDTAVYYCAKTAVDYYYSYDYWGQGTQVTVSS” the entry was “high polyreactivity”; with “QVQLVESGGGLVQAGGSLRLSCAASGLTFNSYDMGWYRQAPGKERELVAAISSGGVLPNYADSVKGRFTISRDNAKNTVYLQMNSLKPEDTAVYYCAAGYEYDVSDFDYWGQGTQVTVSS”, “low polyreactivity”.
To “QVQLVESGGGLVQAGGSLRLSCAASGLTFNVNPIVWYRQAPGKEREMVARITTSGGSTSYADSVKGRFTISRDNAKNTVYLQMNSLKPEDSAVYYCAADRARYYSEYDYWGQGTQVTVSS” belongs “low polyreactivity”; to “QVQLVESGGGLVQAGGSLRLSCAASGLTFNWYAMGWYRQAPGKERELVAAINRRGVITYYADSVKGRFTISRDNAKNTVYLQMNSLKPEDTAVYYCNAAYGYVSRVYYLIEHDYWGQGTHVTVSS”, “high polyreactivity”; to “QVQLVESGGGLVQAGGSLRLSCAASGLTFNYYDMGWYRQAPGKERELVAAISRSGTNTSYADSVKGRFTISRDNAKNTVYLQMNSLKPEDTAVYYCNAAGVYLAAGPYTANFNYNYWGQGTQVTVSS”, “low polyreactivity”.
For the sequence “QVQLVESGGGLVQAGGSLRLSCAASGLTFPFYTMGRYRRAPGKERELVAAISRRGGSTYYADSVKGRFTISRDNAKNTVYLQMNSLKPEDTAVYYCAADKYSWYDYWGQGTQVTVSS”, the “polyreactivity (PSR sort gate)” value is “low polyreactivity”.
With “QVQLVESGGGLVQAGGSLRLSCAASGLTFPFYTMGWYRQAPGKERELVAAISRRGGSTYYADSVKGRFTISRDNAKNTDYLQMNSMKPVDTAVYYCAADKYSWYDYWGQGTEVTVSS” the entry was “low polyreactivity”; with “QVQLVESGGGLVQAGGSLRLSCAASGLTFPHYAMGWYRQAPGKEREFVAVISWSGGSTSYADSVKGRFTISRDNAKNTVYLQMNSLKPEDTAVYYCAAVYRTREWSYYYWGQGTQVTVSS”, “high polyreactivity”; with “QVQLVESGGGLVQAGGSLRLSCAASGLTFPQYVMGWYRQAPGKERELVASISRSGGNTYYADSVKGRFTISRDNAKNTVYLQMNSLKPEDTAVYYCAAEYIFHYYDIFDYWGQGTQVTVSS”, “high polyreactivity”.
To “QVQLVESGGGLVQAGGSLRLSCAASGLTFPSNAMGWYRQAPGKERELVAAISKRGGRKYYADSVKGRFTISRDNAKNTVYLQMNSLKPEDTAVYYCATPYAYPGTVQYARYNYWGQGTQVTVSS” belongs “high polyreactivity”; to “QVQLVESGGGLVQAGGSLRLSCAASGLTFPSNAMGWYRQAPGKERELVAAISKRGGRTYYADSVKGRFTISRDNAKNTVYLQINSLKPEDTAVYYCAAVPWYVSHDFDYWGQGTQVTVSS”, “high polyreactivity”.
As for “QVQLVESGGGLVQAGGSLRLSCAASGLTFPYNAMGWYRQAPGKERELVAAISNGGGTYYADSVKGRFTISRDNAKNPVYLQMNSLKPEDTAVYYCAVDEYSRDYWRYYYWGQGTQVTVSS”, the “polyreactivity (PSR sort gate)” value is given as “low polyreactivity”.
Regarding “QVQLVESGGGLVQAGGSLRLSCAASGLTFPYYAMGWYRQAPGKERELVASISWSGASTYYADSVKGRSTISRDYAKNTVYLQMNSLKPEDTAVYYCNAGFYGSYDYWGQGTQVTVSS”, the “polyreactivity (PSR sort gate)” value was “high polyreactivity”.
“QVQLVESGGGLVQAGGSLRLSCAASGLTFQRYAMGWYRQAHGKERELVAAISYRGSRTYYADSVKGRFTISRDNAKNTVYLQMNSMKPEDSAVYYCNKVRTGYGVTYLVGYWGQGTHVTVSS”: the “polyreactivity (PSR sort gate)” value is on record as “high polyreactivity”.

For the origin of these results see the nanobody polyreactivity screen of Harvey et al. (2022).
